This passage reports Kd results from patent US20090170219.

The test system of the data set is IgG Fc fragment (IgG-Fc) (human), P01857-1. The experiment in a line: SPR. To be noted: 2'-F at all pyrimidines; solution A.
“GGGACACAAUGGACGGCCAACGUUAACUGGAACUGUAAAUCAGGUGCUCGAGAUAACGGCCGACAUGAGAG [SEQ ID NO:4]” displayed a dissociation constant Kd of 6 pM. Turning to “GGGACACAAUGGACGACUACAAGGUGCUCCUUGAAAUGUUAAAUGAGGAACUUGUAACGGCCGACAUGAGAG [SEQ ID NO:5]”, the equilibrium dissociation constant (Kd) amounted to 0.6 pM. In turn, “GGGACACAAUGGACGGCUGGUAAGGUGCUCGGAAUGGAACUCGUCAUUCGGAACUUAACGGCCGACAUGAGAG [SEQ ID NO:6]” had a Kd of 3000 pM.

In turn, “GGGACACAAUGGACGAAAGGUGCUCCAACUAAAUUUGGAACUUUCCACCCAUAAUAACGGCCGACAUGAGAG [SEQ ID NO:8]” registered a Kd of 7000 pM.

In the case of “GGGACACAAUGGACGGGUGUUACAGGUGCUUGAUAAAGGUAGAAAAUCAAACUGUAACGGCCGACAUGAGAG [SEQ ID NO:7]”, the Kd came to 1 pM. The result for “GGGACACAAUGGACGGCGUAAAAUGGAACCUGGGUUAGAAUAUCGGGGGUGCUCCGUAACGGCCGACAUGAGAG [SEQ ID NO:3]” reads 0.5 pM. The same measure for “GGGACACAAUGGACGUCAAAGAAGAGGUGCUCUGCGAGCCACGCGGAACUCUAUAACGGCCGACAUGAGAG [SEQ ID NO:2]”: 7400 pM; for “GGGACACAAUGGACGAGUUACAGGUGCUCCAUCAACAAAAUGUUACAUGGAACUGUAACGGCCGACAUGAGAG [SEQ ID NO:1]”: 1.1 pM.
